Patent publication KR20130033273A (dated 2013)

Target: T1, IGF-1R (Insulin-like growth factor 1 receptor) on the surface of MCF-7 cells (UniProt P08069 31-1367, limits assumed)
T1 construct: whole, on cells; Endogenous receptor of MCF-7 cells; also called MCF-7 세포 표면 IGF-1R 항원; IGF-1 수용체
Experiment: flow cytometry (FACS) on MCF-7 cells, 1 ug/ml antibody, anti-human IgG-FITC

T1 sequence (P08069 31-1367 limits assumed): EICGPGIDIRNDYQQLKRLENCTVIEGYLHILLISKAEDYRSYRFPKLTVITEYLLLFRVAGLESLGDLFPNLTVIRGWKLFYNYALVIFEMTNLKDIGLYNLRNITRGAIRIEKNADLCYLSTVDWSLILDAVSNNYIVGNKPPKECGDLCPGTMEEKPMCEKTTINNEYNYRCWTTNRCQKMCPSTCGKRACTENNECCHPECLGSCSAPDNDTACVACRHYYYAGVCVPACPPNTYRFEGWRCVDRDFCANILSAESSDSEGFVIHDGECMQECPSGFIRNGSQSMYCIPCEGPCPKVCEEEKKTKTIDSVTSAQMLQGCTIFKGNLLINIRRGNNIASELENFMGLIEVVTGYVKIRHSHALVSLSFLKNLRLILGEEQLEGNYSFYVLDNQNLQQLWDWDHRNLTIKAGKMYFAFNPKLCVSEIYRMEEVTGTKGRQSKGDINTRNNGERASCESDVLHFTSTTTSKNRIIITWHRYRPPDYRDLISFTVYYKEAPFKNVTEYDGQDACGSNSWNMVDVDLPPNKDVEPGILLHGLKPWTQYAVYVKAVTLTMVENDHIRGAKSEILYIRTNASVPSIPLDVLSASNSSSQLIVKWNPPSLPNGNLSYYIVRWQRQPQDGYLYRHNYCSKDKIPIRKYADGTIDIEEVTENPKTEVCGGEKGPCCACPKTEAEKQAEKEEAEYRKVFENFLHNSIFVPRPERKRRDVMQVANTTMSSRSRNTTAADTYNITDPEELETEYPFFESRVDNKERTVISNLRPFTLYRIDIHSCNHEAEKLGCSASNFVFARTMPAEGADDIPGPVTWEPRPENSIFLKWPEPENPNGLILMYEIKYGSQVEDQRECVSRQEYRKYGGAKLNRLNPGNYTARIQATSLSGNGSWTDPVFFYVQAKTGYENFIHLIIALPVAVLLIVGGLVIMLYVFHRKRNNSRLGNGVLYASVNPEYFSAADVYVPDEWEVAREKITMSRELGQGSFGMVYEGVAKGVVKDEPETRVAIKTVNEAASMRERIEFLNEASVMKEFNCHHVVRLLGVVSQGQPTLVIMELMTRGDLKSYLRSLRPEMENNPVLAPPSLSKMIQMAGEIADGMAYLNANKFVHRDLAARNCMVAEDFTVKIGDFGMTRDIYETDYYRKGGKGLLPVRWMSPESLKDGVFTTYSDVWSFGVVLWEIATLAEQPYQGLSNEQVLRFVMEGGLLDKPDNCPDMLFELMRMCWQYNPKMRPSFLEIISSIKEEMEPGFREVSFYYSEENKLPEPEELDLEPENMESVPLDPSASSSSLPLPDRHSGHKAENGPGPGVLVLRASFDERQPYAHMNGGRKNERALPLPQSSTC

binding result: binds
B1: 항IGF-1R 항체(A12) (antibody, human IgG1, lambda, V domains shown)
VH: EVQLVQSGAEVKKPGSSVKVSCKASGGTFSSYAISWVRQAPGQGLEWMGGIIPIFGTANYAQKFQGRVTITADKSTSTAYMELSSLRSEDTAVYYCARAPLRFLEWSTQDHYYYYYMDVWGKGTTVTVSS
VL: SSELTQDPAVSVALGQTVRITCQGDSLRSYYATWYQQKPGQAPILVIYGENKRPSGIPDRFSGSSSGNTASLTITGAQAEDEADYYCKSRDGSGQHLVFGGGTKLTVLG
notes: IgG form; also called 항암항체(A12); Imclone사(A12) 항IGF-1R 항체
